Measurements reported in publication PMC2515335 (2008).

Target: T1, Importin-β3 (Homo sapiens, UniProt O00410)
T1 chain: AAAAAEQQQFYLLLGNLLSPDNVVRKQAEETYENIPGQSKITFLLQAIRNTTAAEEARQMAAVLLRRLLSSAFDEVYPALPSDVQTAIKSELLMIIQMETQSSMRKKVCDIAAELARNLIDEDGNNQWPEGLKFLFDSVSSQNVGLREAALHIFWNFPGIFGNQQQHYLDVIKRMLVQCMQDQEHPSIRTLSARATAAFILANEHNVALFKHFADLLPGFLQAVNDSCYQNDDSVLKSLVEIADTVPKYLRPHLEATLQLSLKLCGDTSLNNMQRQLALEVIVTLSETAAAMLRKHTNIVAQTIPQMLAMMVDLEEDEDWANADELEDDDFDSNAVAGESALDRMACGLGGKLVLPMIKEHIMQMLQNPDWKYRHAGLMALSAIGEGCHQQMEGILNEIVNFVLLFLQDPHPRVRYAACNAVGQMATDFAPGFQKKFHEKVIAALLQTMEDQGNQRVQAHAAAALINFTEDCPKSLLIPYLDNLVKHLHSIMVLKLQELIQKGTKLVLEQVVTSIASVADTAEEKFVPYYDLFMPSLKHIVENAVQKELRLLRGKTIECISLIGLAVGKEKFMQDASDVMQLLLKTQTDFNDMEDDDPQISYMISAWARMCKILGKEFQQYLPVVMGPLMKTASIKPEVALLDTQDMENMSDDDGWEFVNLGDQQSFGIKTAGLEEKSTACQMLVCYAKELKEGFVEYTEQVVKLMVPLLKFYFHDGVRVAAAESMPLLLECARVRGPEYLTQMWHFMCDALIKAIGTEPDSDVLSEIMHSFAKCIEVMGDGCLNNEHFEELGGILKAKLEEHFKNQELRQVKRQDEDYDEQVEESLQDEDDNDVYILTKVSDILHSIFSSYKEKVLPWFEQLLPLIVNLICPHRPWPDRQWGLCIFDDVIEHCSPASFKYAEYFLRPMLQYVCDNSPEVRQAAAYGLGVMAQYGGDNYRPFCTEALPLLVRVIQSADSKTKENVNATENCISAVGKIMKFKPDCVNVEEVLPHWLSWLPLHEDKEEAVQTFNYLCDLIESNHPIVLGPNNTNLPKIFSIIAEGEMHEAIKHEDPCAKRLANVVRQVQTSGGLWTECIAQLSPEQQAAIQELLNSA
Assay: native PAGE gel-shift mobility assay/fluorimetry

B1: Vpr 1-96 (protein)
chain: MEQAPEDQGPQREPYNEWTLELLEELKSEAVRHFPRIWLHNLGQHIYETYGDTWAGVEAIIRILQQLLFIHFRIGCRHSRIGVTRQRRARNGASRS
- Kd: 660 nM
